Laboratory results from patent US20050228169A1 (published 2005).

Molecular target: T1, GST-syntaxin-1a (1-266AA) (human, UniProt P08515 1-218 = GST; Q16623 1-266)
T1 construct: Expressed in E. coli DH5a and purified on glutathione-Sepharose; also called GST-syntaxin-1a fused protein; syntaxin-1a-GST
Assay: GST pull-down: GST-syntaxin-1a (17 µg) on glutathione-Sepharose, 16 hours at 4° C.; Western blot with anti-penta His antibody
Protocol: KIAA1006 polypeptide (the histidine-tagged KIAA1006 polypeptide described above) and its C-terminal truncated product (the histidine-tagged C-terminal truncation product of KIAA1006 polypeptide described above) purified with a cobalt resin were respectively mixed with glutathione-Sepharose (bed volume 10 μl) to which GST (17 μg) was bound, stirred for 6 hours at 4° C., and then centrifuged. The obtained supernatants (GST-glutathione-Sepharose unadsorbed fractions) were respectively added to glutathione-Sepharose (bed volume 10 μl) to which GST-syntaxin-1a (17 μg) was bound, and after stirring for 16 hours at 4° C., the resultants were subjected to centrifugation. The fractions adsorbed to GST-glutathione-Sepharose and the fractions adsorbed to GST-syntaxin-1a-glutathione-Sepharose were eluted with SDS-PAGE sample buffer, respectively, and the binding of syntaxin-1a to KIAA1006 polypeptide or to its C-terminal truncation product was analyzed by Western blotting using anti-penta His antibody (Qiagen).
For the SDS-PAGE, 4-12% Bis-Tris Gel (NOVEX) was used. The detection of a secondary antibody that was labeled with horseradish peroxidase was carried out using ECL Western blotting detection reagents (Amersham Pharmacia Biotech).

T1 sequence (P08515 1-218, tags or fused parts left off): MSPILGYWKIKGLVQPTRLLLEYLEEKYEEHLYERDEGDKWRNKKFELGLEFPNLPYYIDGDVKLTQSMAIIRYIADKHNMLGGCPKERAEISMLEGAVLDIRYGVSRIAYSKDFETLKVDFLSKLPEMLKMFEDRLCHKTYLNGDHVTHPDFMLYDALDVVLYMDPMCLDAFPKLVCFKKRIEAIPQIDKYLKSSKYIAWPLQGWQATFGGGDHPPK

B1: histidine-tagged KIAA1006 C-terminal truncated polypeptide (1-1157AA) (other)
chain: HHHHHHMKKFNFRKVLDGLTASSPGSGSSSGSNSGGGAGSGSVHPAGTAGVLREEIQETLTSEYFQICKTVRHGFPHQPTALAFDPVQKILAIGTRTGAIRILGRPGVDCYCQHESGAAVLQLQFLINEGALVSASSDDTLHLWNLRQKRPAILHSLKFNRERITYCHLPFQSKWLYVGTERGNTHIVNIESFILSGYVIMWNKAIELSTKTHPGPVVHLSDSPRDEGKLLIGYENGTVVFWDLKSKRAELRVYYDEAIHSIDWHHEGKQFMCSHSDGSLTLWNLKSPSRPFQTTIPHGKSQREGRKSESCKPILKVEYKTCKNSEPFIIFSGGLSYDKACRRPSLTIMHGKAITVLEMDHPIVEFLTLCETPYPNEFQEPYAVVVLLEKDLIVVDLTQSNFPIFENPYPMDIHESPVTCTAYFADCPPDLILVLYSIGVKHKKQGYSNKEWPISGGAWNLGAQTYPEIIITGHADGSIKFWDASAITLQMLYKLKTSKVFEKQKVGEGKQTCEIVEEDPFAIQMIYWCPESRIFCVSGVSAYVIIYKFSRHEITTEIVSLEVRLQYDVEDIITPEPETSPPFPDLSAQLPSSRSLSGSTNTVASEGVTKDSIPCLNVKTRPVRMPPGYQAELVIQLVWVDGEPPQQITSLAVSSAYGIVAFGNCNGLAVVDFIQKTVLLSMGTIDLYRSSDLYQRQPRSPRKNKQFIADNFCMRGLSNFYPDLTKRIRTSYQSLTELNDSPVPLELERCKSPTSDHVNGHCTSPTSQSCSSGKRLSSADVSKVNRWGPGRPPFRKAQSAACMEISLPVTTEENRENSYNRSRSSSISSIDKDSKEAITALYFMDSFARKNDSTISPCLFVGTSLGMVLIISLNLPLADEQRFTEPVMVLPSGTFLSLKGAVLTFSCMDRMGGLMQPPYEVWRDPNNIDENEKSWRRKVVMNSSSASQEIGDHQYTIICSEKQAKVFSLPSQTCLYVHNITETSFILQANVVVMCSSACLACFCANGHIMIMSLPSLRPMLDVNYLPLTDMRIARTFCFTNEGQALYLVSPTEIQRLTYSQEMCDNLQDMLGDLFTPIETPEAQNRGFLKGLFGGSGQTFDREELFGEASAGKASRSLAQHIPGPGSIEGMKGAAGGVMGELTRARIALDERGQRLGELEEKT
notes: Expressed in sf9 insect cells by baculovirus and purified on cobalt resin; The junction of the tag is as noted for m1; also called C-terminal truncated product; C-terminal truncation product of KIAA1006 polypeptide
  binding result: no binding
